Response data for five variants are collected here from article PMC6323126 (2019).

Sequences and labels used below:
B1: SIKE1 (recombinant, limits not stated) [human] / SLMAP (recombinant, limits not stated for the experiment) [human] (parent complex)
chain 1: MSCTIEKILTDAKTLLERLREHDAAAESLVDQSAALHRRVAAMREAGTALPDQYQEDASDMKDMSKYKPHILLSQENTQIRDLQQENRELWISLEEHQDALELIMSKYRKQMLQLMVAKKAVDAEPVLKAHQSHSAEIESQIDRICEMGEVMRKAVQVDDDQFCKIQEKLAQLELENKELRELLSISSESLQARKENSMDTASQAIK
chain 2: YSQELFQLSQYLQEALHREQMLEQKLATLQRLLAITQEASDTSWQALIDEDRLLSRLEVMGNQLQACSKNQTEDSLRKELIALQEDKHNYETTAKESLRRVLQEKIEVVRKLSEVERSLSNTEDECTHLKEMNERTQEELRELANKYNGAVNEIKDLSDKLKVAEGKQEEIQQKGQAEKKELQHKIDEMEEKEQELQAKIEALQADNDFTNERLTALQVRLEHLQEKTLKECSSLEHLLSKSGGDCTFIHQFIECQKKLIVEGHLTKAVEETKLSKENQTRAKESDFSDTLSPSKEKSSDDTTDAQMDEQDLNEPLAKVSLLKDDLQGAQSEIEAKQEIQHLRKELIEAQELARTSKQKCFELQALLEEERKAYRNQVEESTKQIQVLQAQLQRLHIDTENLREEKDSEITSTRDELLSARDEILLLHQAAAKVASERDTDIASLQEELKKVRAELERWRKAASEYEKEITSLQNSFQLRCQQCEDQQREEATRLQGELEKLRKEWNALETECHSLKRENVLLSSELQRQEKELHNSQKQSLELTSDLSILQMSRKELENQVGSLKEQHLRDSADLKTLLSKAENQAKDVQKEYEKTQTVLSELKLKFEMTEQEKQSITDELKQCKNNLKLLREKGNNKP

Variants of B1 are the subject of the assay. Nature of the assay: BLI; read at the end of association (about 360 s); parent: 0.13; read off a plot.
Consider chain 1 L19D, for which the response was about 0.045 nm. As for chain 1 L36D, the response is about 0 nm.

With chain 1 L15D, chain 1 L19D, chain 1 L36D, chain 1 M43E, the response is about 0.02 nm. Next, chain 1 M43E: about 0.05 nm; chain 1 L15D: about 0.045 nm.
